This is an account of results in the supplement of paper PMC10598134.

± gives the standard deviation.

The series in a line: collision cross section of modified peptide (TIMS, N2, iRT-aligned); higher = larger / more extended gas-phase ion. An outline of the steps: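 Collision cross section values rest on the Mason-Schamp equation applied to calibrated, run-aligned mobility data from synthetic peptides. Mobility (1/K0) was calibrated with three reference ions and aligned per run to the median iRT peptide deviation, and 1–3 technical replicates of the most abundant feature per charge state were averaged. Data came from a timsTOF Pro/HT in dda-PASEF mode (nitrogen, ~2.4 mbar) after a 120-min nanoflow C18 gradient at 60 °C.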

[1] abbreviates: charge state: 2, modification: Biotin.
[2] abbreviates: charge state: 2, modification: Butyryl.
[3] abbreviates: charge state: 3, modification: Butyryl.
Where [4] appears, read: charge state: 2, modification: Crotonyl.
The mark [5] stands for this setting: charge state: 3, modification: Dimethyl (K).
Setting [6] is: charge state: 2, modification: Formyl.
[7] abbreviates: charge state: 2, modification: Glutarylation.
Setting [8] is: charge state: 3, modification: Glutarylation.
The mark [9] stands for this setting: charge state: 2, modification: GlyGly (K).
Setting [10] is: charge state: 3, modification: GlyGly (K).
The mark [11] stands for this setting: charge state: 2, modification: Malonyl.
[12] abbreviates: charge state: 2, modification: Methyl (K).
The mark [13] stands for this setting: charge state: 3, modification: Methyl (K).
Setting [14] is: charge state: 2, modification: Succinyl.
Where [15] appears, read: charge state: 3, modification: Succinyl.
Where [16] appears, read: charge state: 3, modification: Trimethyl (K).
The mark [17] stands for this setting: charge state: 2, modification: hydroxyisobutyryl.
Where [18] appears, read: charge state: 3, modification: hydroxyisobutyryl.
Setting [19] is: charge state: 2, modification: Citrullination (R).
[20] abbreviates: charge state: 3, modification: Citrullination (R).
Setting [21] is: charge state: 2, modification: Methyl (R).
Where [22] appears, read: charge state: 3, modification: Methyl (R).
[23] abbreviates: charge state: 2, modification: Nitro (Y).
[24] abbreviates: charge state: 2, modification: Phospho (Y).
Setting [25] is: charge state: 2, modification: Acetyl (K).
Where [26] appears, read: charge state: 2, modification: Hydroxyproline.

“FSAYIKNSNPALNDNLEK [_FSAYIK(Biotin)NSNPALNDNLEK_]”: the collision cross section was determined as 499.7 ± 0.61 Å² under setting [1] and 526.24 Å² (charge state: 3, modification: Biotin).
With “FSAYIKNSNPALNDNLEK [_FSAYIK(Butyryl)NSNPALNDNLEK_]”, the collision cross section is, setting by setting: under setting [2], 487.55 ± 1 Å²; under setting [3], 548.32 ± 1.1 Å².
Take “FSAYIKNSNPALNDNLEK [_FSAYIK(Crotonyl)NSNPALNDNLEK_]”: the collision cross section under setting [4] was 486.61 ± 2.3 Å².
The sequence “FSAYIKNSNPALNDNLEK [_FSAYIK(Dimethyl (K))NSNPALNDNLEK_]” displayed a collision cross section under setting [5] of 510.58 ± 2.9 Å².
“FSAYIKNSNPALNDNLEK [_FSAYIK(Formyl)NSNPALNDNLEK_]” showed a collision cross section under setting [6] of 479.47 ± 1.3 Å² and a collision cross section (charge state: 3, modification: Formyl) of 528.92 ± 9.9 Å².
Regarding “FSAYIKNSNPALNDNLEK [_FSAYIK(Gluratylation)NSNPALNDNLEK_]”, the collision cross section was 487.96 ± 2 Å² under setting [7] and 547.09 ± 1.3 Å² under setting [8].
On to “FSAYIKNSNPALNDNLEK [_FSAYIK(GlyGly (K))NSNPALNDNLEK_]”, for which the collision cross section reads like this: under setting [9], 506.19 ± 1.5 Å²; under setting [10], 530.18 ± 11 Å².
Regarding “FSAYIKNSNPALNDNLEK [_FSAYIK(Malonyl)NSNPALNDNLEK_]”, the collision cross section reads like this: under setting [11], 479.79 ± 4.5 Å²; (charge state: 3, modification: Malonyl) 527.7 ± 2.3 Å².
In the case of “FSAYIKNSNPALNDNLEK [_FSAYIK(Methyl (K))NSNPALNDNLEK_]”, the collision cross section by setting is: under setting [12], 493.27 Å²; under setting [13], 508.45 ± 2.8 Å².
As to “FSAYIKNSNPALNDNLEK [_FSAYIK(Succinyl)NSNPALNDNLEK_]”, the collision cross section reads like this: under setting [14], 492.09 ± 3.4 Å²; under setting [15], 527.54 ± 2 Å².
As to “FSAYIKNSNPALNDNLEK [_FSAYIK(Trimethyl (K))NSNPALNDNLEK_]”, the collision cross section under setting [16] came to 516.88 ± 0.87 Å².
Regarding “FSAYIKNSNPALNDNLEK [_FSAYIK(hydroxyisobutyryl)NSNPALNDNLEK_]”, the collision cross section is 489.27 ± 0.86 Å² under setting [17] and 551.92 ± 1.1 Å² under setting [18].
With “FSHSVQNSERGK [_FSHSVQNSER(Citrullination (R))GK_]”, the collision cross section was 390.38 ± 0.44 Å² under setting [19] and 441.33 ± 1.8 Å² under setting [20].
As to “FSHSVQNSERGK [_FSHSVQNSER(Methyl (R))GK_]”, the collision cross section runs as follows: under setting [21], 405.91 ± 1.3 Å²; under setting [22], 465.06 ± 2.1 Å².
Regarding “FSPPSSSLQPGK [_FSPPSSS(HexNAc (ST))LQPGK_]”, for the setting “charge state: 2, modification: HexNAc (ST)”, the collision cross section is listed as 396.47 ± 1.2 Å².
On to “FSYTSQHSDYGQR [_FS(HexNAc (ST))YTSQHSDYGQR_]”, for which the collision cross section (charge state: 3, modification: HexNAc (ST)) is listed as 502.75 ± 0.96 Å².
The sequence FTEYETQVK [_FTEY(Nitro (Y))ETQVK_] gave a collision cross section under setting [23] of 363.94 ± 0.94 Å².
As to FTEYETQVK [_FTEY(Phospho (Y))ETQVK_], under setting [24], the collision cross section turned out to be 359.15 ± 0.75 Å².
On to “FVDSKVGEFSGANK [_FVDSK(Formyl)VGEFSGANK_]”, for which the collision cross section under setting [6] was determined as 406.35 Å².
For the sequence “FVDSKVGEFSGANK [_FVDSK(Gluratylation)VGEFSGANK_]”, under setting [7], the collision cross section turned out to be 419.09 Å².
“FVDSKVGEFSGANK [_FVDSK(Methyl (K))VGEFSGANK_]” came in with a collision cross section under setting [12] of 434.66 Å².
Under “charge state: 2, modification: Trimethyl (K)”, “FVDSKVGEFSGANK [_FVDSK(Trimethyl (K))VGEFSGANK_]” showed a collision cross section of 432.92 Å².
As for FYTEDSPGLK [_FY(Nitro (Y))TEDSPGLK_], the collision cross section under setting [23] is 356.24 ± 0.17 Å².
As to FYTEDSPGLK [_FY(Phospho (Y))TEDSPGLK_], the collision cross section under setting [24] was 366.92 ± 0.064 Å².
“GADFLVTEVENGGSLGSKK [_GADFLVTEVENGGSLGSK(Acetyl (K))K_]” displayed a collision cross section under setting [25] of 465.51 Å² and a collision cross section (charge state: 3, modification: Acetyl (K)) of 541.97 Å².
With “GADFLVTEVENGGSLGSKK [_GADFLVTEVENGGSLGSK(Butyryl)K_]”, the collision cross section was 476.08 ± 1.1 Å² under setting [2] and 551.35 Å² under setting [3].
Consider “GADFLVTEVENGGSLGSKK [_GADFLVTEVENGGSLGSK(Crotonyl)K_]”, for which the collision cross section reads like this: under setting [4], 475.14 ± 1.9 Å²; (charge state: 3, modification: Crotonyl) 548.96 Å².
For “GADFLVTEVENGGSLGSKK [_GADFLVTEVENGGSLGSK(Dimethyl (K))K_]”, the collision cross section under setting [5] is given as 539.44 Å².
With “GADFLVTEVENGGSLGSKK [_GADFLVTEVENGGSLGSK(Gluratylation)K_]”, the collision cross section is 481.44 ± 2 Å² under setting [7] and 556.42 Å² under setting [8].
Sequence “GADFLVTEVENGGSLGSKK [_GADFLVTEVENGGSLGSK(GlyGly (K))K_]” gave a collision cross section under setting [9] of 505.48 Å².
Consider “GADFLVTEVENGGSLGSKK [_GADFLVTEVENGGSLGSK(Malonyl)K_]”, for which the collision cross section under setting [11] turned out to be 475.75 ± 0.97 Å².
Consider “GADFLVTEVENGGSLGSKK [_GADFLVTEVENGGSLGSK(Methyl (K))K_]”, for which the collision cross section runs as follows: under setting [12], 494.56 Å²; under setting [13], 538.26 Å².
As for “GADFLVTEVENGGSLGSKK [_GADFLVTEVENGGSLGSK(Succinyl)K_]”, the collision cross section by setting is: under setting [14], 480.22 ± 1.1 Å²; under setting [15], 554.56 Å².
Sequence “GADFLVTEVENGGSLGSKK [_GADFLVTEVENGGSLGSK(Trimethyl (K))K_]” displayed a collision cross section under setting [16] of 548.47 ± 1.1 Å².
Consider “GADFLVTEVENGGSLGSKK [_GADFLVTEVENGGSLGSK(hydroxyisobutyryl)K_]”, for which the collision cross section worked out at 478.5 ± 1.3 Å² under setting [17] and 553.89 Å² under setting [18].
For GAEKTEVAEPR [_GAEK(Acetyl (K))TEVAEPR_], the collision cross section under setting [25] is 370.22 ± 7.6 Å².
Under setting [1], GAEKTEVAEPR [_GAEK(Biotin)TEVAEPR_] yielded a collision cross section of 393.63 Å².
On to GAEKTEVAEPR [_GAEK(Butyryl)TEVAEPR_], for which the collision cross section under setting [2] is reported as 380.97 ± 1.3 Å².
Under setting [4], GAEKTEVAEPR [_GAEK(Crotonyl)TEVAEPR_] gave a collision cross section of 370.18 ± 9 Å².
Take “GAEKTEVAEPR [_GAEK(Dimethyl (K))TEVAEPR_]”: the collision cross section by setting is: (charge state: 2, modification: Dimethyl (K)) 374.44 ± 1.3 Å²; under setting [5], 439.06 ± 1.6 Å².
Sequence GAEKTEVAEPR [_GAEK(Formyl)TEVAEPR_] had a collision cross section under setting [6] of 371.26 ± 0.89 Å².
On to “GAEKTEVAEPR [_GAEK(Gluratylation)TEVAEPR_]”, for which, under setting [7], the collision cross section came to 362.79 ± 0.71 Å².
For the sequence GAEKTEVAEPR [_GAEK(GlyGly (K))TEVAEPR_], the collision cross section by setting is: under setting [9], 384.75 ± 0.88 Å²; under setting [10], 448.79 ± 1.6 Å².
Consider GAEKTEVAEPR [_GAEK(Malonyl)TEVAEPR_], for which, under setting [11], the collision cross section was determined as 372.62 ± 0.63 Å².
In the case of GAEKTEVAEPR [_GAEK(Methyl (K))TEVAEPR_], the collision cross section reads like this: under setting [12], 369.74 ± 0.22 Å²; under setting [13], 441.71 ± 4.3 Å².
Sequence GAEKTEVAEPR [_GAEK(Propionyl)TEVAEPR_] yielded a collision cross section (charge state: 2, modification: Propionyl) of 373.13 ± 6.5 Å².
GAEKTEVAEPR [_GAEK(Succinyl)TEVAEPR_] registered a collision cross section under setting [14] of 372.49 ± 0.4 Å².
On to “GAEKTEVAEPR [_GAEK(Trimethyl (K))TEVAEPR_]”, for which the collision cross section under setting [16] came out at 447.07 ± 3.3 Å².
As for “GAEKTEVAEPR [_GAEK(hydroxyisobutyryl)TEVAEPR_]”, the collision cross section under setting [17] is on record as 376.1 ± 9 Å².
Sequence “GAPGGRGAQLSVPSPAR [_GAPGGR(Citrullination (R))GAQLSVPSPAR_]” registered a collision cross section under setting [19] of 412.31 ± 0.55 Å².
Sequence “GAPGGRGAQLSVPSPAR [_GAPGGR(Methyl (R))GAQLSVPSPAR_]” showed a collision cross section under setting [22] of 494.35 ± 0.66 Å².
Sequence “GAPGPQGPPGPPGK [_GAPGPQGPPGPP(Hydroxyproline)GK_]” returned a collision cross section under setting [26] of 359.87 ± 0.26 Å².
With “GARLPGPVSSAR [_GAR(Citrullination (R))LPGPVSSAR_]”, the collision cross section under setting [19] is reported as 355.27 ± 6 Å² and the collision cross section under setting [20] came to 446.63 Å².
As to “GARLPGPVSSAR [_GAR(Methyl (R))LPGPVSSAR_]”, the collision cross section is 360.12 ± 1.2 Å² under setting [21] and 474.74 ± 8.7 Å² under setting [22].
Take “GATVTRGVPPPPTVR [_GATVTR(Citrullination (R))GVPPPPTVR_]”: the collision cross section was determined as 398.42 ± 2.1 Å² under setting [19] and 501.66 Å² under setting [20].
With “GATVTRGVPPPPTVR [_GATVTR(Methyl (R))GVPPPPTVR_]”, the collision cross section under setting [22] is 512.38 ± 1.6 Å².
With GDAGEPGR [_GDAGEP(Hydroxyproline)GR_], the collision cross section under setting [26] stood at 292.85 ± 1.1 Å².
In the case of “GDAGEPGRPGSPGK [_GDAGEP(Hydroxyproline)GRPGSPGK_]”, the collision cross section (charge state: 3, modification: Hydroxyproline) is reported as 446.53 ± 1.3 Å².
“GDAGEPGRPGSPGK [_GDAGEPGRPGSP(Hydroxyproline)GK_]” gave a collision cross section under setting [26] of 357.84 ± 0.8 Å².
